We go through one molecule from US20190041390A1 (UNIVERSITY OF TENNESSEE RESEARCH FOUNDATION, published 2019).

This test has as its target T1, streptavidin/gold (10 nm-diameter; Electron Microscopy Sciences) (UniProt P22629 37-163, limits assumed, conjugated to 10 nm gold particles).
T1 construct: Detection reagent; also called avidin-conjugated gold particles; gold particles
Put plainly: immunogold electron microscopy control, fibrils with recruited AL1κ and no mAb added. From the text: Immunogold electron microscopy was used to investigate the binding sites of AL1κ LC on rVλ6Wil fibrils (FIG. 6A and FIG. 6B). The distribution of AL1κ LC (evidenced by the presence of anti-κ LC mAb-bound 10 nm-diameter gold particles; arrows) was generally at the ends of the rVλ6Wil fibrils and less commonly seen along the length of the fibril (arrowheads; FIG. 6A). A sample of fibrils with AL1κ LC recruited but with no mAb added served as a non-specific binding control. No gold particles were observed associated with the majority of fibrils in this preparation (FIG. 6B).
Twenty-five μg of rVλ6Wil fibrils were mixed with 1 μg […] in 200 μL of tris-buffered saline (TBS) with 0.05% tween-20 (TBST) in a 1.5 mL-volume microcentrifuge tube. The sample was rotated at RT for 24 h before being centrifuged at 20,000×g for 8 min, and the supernatant was discarded. The pellet was washed in 400 μL TBST twice by centrifugation, before the sample was split into two 200 μL-volume samples in TBST. To one sample, 10 μg each of two biotinylated anti-κ mAbs (αLKC8 and 14-6E4) were added; no antibodies were added to the other sample. Both samples were rotated 2 h at RT prior to two washes by centrifugation, as before. The pellets were resuspended in […] TBST with addition of a 1:4 dilution of streptavidin/gold stock solution ([…]; Electron Microscopy Sciences, Hatfield, Pa.). […]

T1 sequence (P22629 37-163 limits assumed): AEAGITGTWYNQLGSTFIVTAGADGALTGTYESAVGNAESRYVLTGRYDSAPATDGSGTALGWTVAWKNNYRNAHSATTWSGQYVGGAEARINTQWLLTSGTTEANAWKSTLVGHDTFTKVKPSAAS

B1: synthetic rVλ6Wil fibrils (other)
VL: NFLLTQPHSVSESPGKTVTISCTRSSGSIANNYVHWYQQRPGSSPTTVIFEDDHRPSGVPDRFSGSVDTSSNSASLTISGLKTEDEADYYCQSYDHNNQVFGGGTKLTVLG
notes: Amyloid fibril polymer of rVλ6Wil monomers; Used in suspension (pulldown), coupled to a CM-5 chip (SPR) or dried onto microplate wells; also called rVλ6Wil synthetic amyloid fibrils; rVλ6Wil fibril seed
With B1, the binding result is “no binding”.
